Data published in patent US11298402B2, “Lysosomal degradation of lipids and proteins and method of use thereof” (University of Ottawa, priority 2015, dated 2022).

Columns and labels:
[1] = tested on: mice; assay: Mice fed a high fat diet for 30 days, adenoviral vector via tail vein; type: in vivo; conditions: HFD 30 days, Adv-MG1023 10^9 pfu/mouse, 48 h; vs empty vector
Source text: Mice were fed with a high fat diet (HFD) for 30 days, and injected with Adv-empty vector (EV) or Adv-MG1023 expressing Arl8b^T34N via the tail vein (10^9 pfu/mouse). Forty eight hours after virus injection, mice were euthanized and dissected to collect liver tissue samples. Liver tissues were frozen fresh in Cryomatrix (ThermoScientific), and then sectioned and processed for oil red o staining. Intrahepatic liver lipid droplets in the liver sections were observed under bright field microscope (Zeiss AxioImager M2).
In FIG. 48, mice were fed with a high fat diet (HFD) for 30 days, and injected with Adv-empty vector (EV) or Adv-MG1023 vector (FIG. 46) expressing Arl8b^T34N via the tail vein (10^9 pfu/mouse). Forty eight hours after virus injection, mice were euthanized and dissected to collect liver tissues. Liver tissues were frozen fresh in Cryomatrix (ThermoScientific), and then sectioned and processed for oil red o staining. Intrahepatic liver lipid droplets in the liver sections were observed under bright field microscope (Zeiss AxioImager M2).

[2] = tested on: mice; assay: High fat diet and PO gavage for 10 days (palm oil-induced NASH mouse model); type: in vivo; conditions: HFD and PO gavage 10 days; in comparison with Arl8b^Q75L-treated mice
Protocol: For comparison, control mice were treated with Adv-MG1022 (a vector expressing Arl8b^Q75L) and then subjected to HFD and PO gavage for 10 days. (A) provides visceral views, and liver morphology views, of Arl8b^Q75L and Arl8b^T34N-treated mice, showing enhanced resistance to fatty liver and fat accumulation in Arl8b^T34N-treated mice. (B) provides images of liver sections stained with Oil Red O from mice subjected to a high fat diet and PO gavage for 10 days followed by treatment with Adv-MG1023 vector expressing Arl8b^T34N. For comparison, images of liver sections stained with Oil Red O obtained from mice treated with Adv-MG1022 (a vector expressing Arl8b^Q75L) and then subjected to HFD and PO gavage for 10 days are also provided.
In FIG. 49, mice were subjected to a high fat diet and PO gavage for 10 days, followed by treatment with Adv-MG1023 vector expressing Arl8b^T34N. For comparison, mice were treated with Adv-MG1022 (a vector expressing Arl8b^Q75L; FIG. 46) and then subjected to HFD and PO gavage for 10 days. These experiments may be considered as palm oil-induced NASH mouse models. FIG. 49A provides visceral views, and liver morphology views, of Arl8b^Q75L and Arl8b^T34N-treated mice, showing enhanced resistance to fatty liver and fat accumulation in Arl8b^T34N-treated mice. […]

[3] = tested on: HCV core protein expressing cells; assay: Imaging of HCV core protein expressing cells; type: cell-based
Source text: This may be because the presence of HCV core protein may “lock” lysosomes onto the LD surface during the lysosomal engulfment process, resulting in scattered distribution of lysosomes throughout the cell cytoplasm. This situation is similar to that observed in cells after prolonged treatment with oleate (see FIG. 36, top row). White arrows indicate HCV core protein (pseudo-colored in green) and lysosomes (LysoTracker; blue) in association with LDs;
FIG. 41 provides data illustrating the effect of Arl8b “DN” on HCV core distribution and interaction between lysosomes and lipid droplets.
As shown in HCV core protein expressing cells (FIG. 41, left panel), the HCV core proteins (GFP-tagged) are bound to CLDs. The core protein binding to the CLDs apparently renders persistent lysosomal interaction with CLDs (i.e. kiss without run) and thus impaired microautophagy. As explained with reference to FIG. 39, functional microautophagy includes proper lysosomal engulfment (Kiss) and termination of this process, via lysosomal “go”, “interact”, and “back” events. As detailed herein, by introducing a putative GDP-bound form or Arl8b (Arl8b^T34N) into the HCV core protein-expressing cells, microautophagy functionality may be restored (FIG. 41, right panel). […]

B1: Arl8b^T34N: putative GDP-bound, dominant negative Arl8b mutant (Thr-to-Asn at 34; SEQ ID NO: 12), expressed from plasmid or adenovirus Adv-MG1023; tagged forms used (protein)
chain: MLALISRLLDWFRSLFWKEEMELTLVGLQYSGKNTFVNVIASGQFSEDMIPTVGFNMRKVTKGNVTIKIWDIGGQPRFRSMWERYCRGVNAIVYMIDAADREKIEASRNELHNLLDKPQLQGIPVLVLGNKRDLPNALDEKQLIEKMNLSAIQDREICCYSISCKEKDNIDITLQWLIQHSKSRRS
modifications: GFP/RFP tags in some forms; T34N substitution, GDP-binding
notes: tagged forms used
abdominal fat accumulation [1]: less abdominal fat
fatty liver (Oil Red O) [1]: more resistant to fatty liver
obesity [1]: less obese
fatty liver disease arising from HFD [2]: enhanced resistance to fatty liver disease
HCV core protein distribution on CLD [3]: displaced HCV core protein from the CLD surface
lysosome association with LD surface [3]: effectively displace lysosomes from LD surface
